Test results taken from patent publication US20050106100.

What was measured:
Ac-POG˜LLA-Ahxh-Hynic = biological target: T1, Ac-POG˜LLA-Ahxh-Hynic
T1 chain: PXGLLA

[1] = biological target: T2, Ac-Inp-Cit-G˜Hphe-LA-Ahxh-Hynic (not fully specified)
T2 chain: XXGXLA

Ac-PLG˜LY-Ahxh-Ac[C14] = biological target: T3, Ac-PLG˜LY-Ahxh-Ac[C14] (not fully specified)
T3 chain: PLGLY

[2] = biological target: T4, Ac-POG˜Hphe-LA-Ahxh-Hynic
T4 chain: PXGXLA

Ac-PL-DAla˜LL-Ahxh-Hynic = biological target: T5, Ac-PL-DAla˜LL-Ahxh-Hynic (not fully specified)
T5 chain: PLALL

[3] = biological target: T6, Ac-PLG˜Hphe-OLEE-Ahx-Hynic
T6 chain: PLGXXLEE

Piv-PLG˜LYT-Ahxh-Hynic = biological target: T7, Piv-PLG˜LYT-Ahxh-Hynic
T7 chain: PLGLYT

[4] = biological target: T8, Ac-PLG˜L-Pya-L-Ahxh-Ac[C14] (not fully specified)
T8 chain: PLGLXL

[5] = biological target: T9, Ac-P-Cit-G˜Nle-LA-Ahxh-Hynic (not fully specified)
T9 chain: PXGXLA

Ac-PLG˜L-Cha-Ahxh-Hynic = biological target: T10, Ac-PLG˜L-Cha-Ahxh-Hynic
T10 chain: PLGLX

[6] = biological target: T11, Ac-Oic-LG˜LL-Ahxh-Ac[C14] (not fully specified)
T11 chain: XLGLL

Ac-P-Cit-G-Hphe-LA-Hynic = biological target: T12, Ac-P-Cit-G-Hphe-LA-Hynic
T12 chain: PXGXLA

Ac-PLG˜LWA-Ahxh-Ac[C14] = biological target: T13, Ac-PLG˜LWA-Ahxh-Ac[C14] (not fully specified)
T13 chain: PLGLWA

Ac-PRQ˜ITA-Ahxh-Hynic = biological target: T14, Ac-PRQ˜ITA-Ahxh-Hynic
T14 chain: PRQITA

[7] = biological target: T15, Ac-PLG-Hphe-OL-Ahxh-Ac[C14]
T15 chain: PLGXXL

[8] = biological target: T16, Ac-P-Cit-G˜Hphe-OL-Ahxh-Ac[C14] (not fully specified)
T16 chain: PXGXXL

Ac-PLG˜LL-Ambh-Hynic = biological target: T17, Ac-PLG˜LL-Ambh-Hynic
T17 chain: PLGLL

[9] = biological target: T18, Ac-P-Cit-G˜Hphe-LA-Ahxh-Ac[C14] (not fully specified)
T18 chain: PXGXLA

[10] = biological target: T19, Ac-POG˜Hphe-LTR-Ahxh-Hynic
T19 chain: PXGXLTR

[11] = biological target: T20, Ac-PLG˜Hphe-RLA-Ambh-Hynic
T20 chain: PLGXRLA

[12] = biological target: T21, Ac-P-Cit-G˜S(OBn)-LA-Ahxh-Hynic (not fully specified)
T21 chain: PXGSLA

[13] = biological target: T22, Ac-PLG˜S(OBn)-LL-Ahxh-Ac[C14] (not fully specified)
T22 chain: PLGSLL

[14] = biological target: T23, Ac-P-Cit-G˜Igl-LA-Ahxh-Hynic (not fully specified)
T23 chain: PXGXLA

[15] = biological target: T24, Ac-PLG˜Cit-LA-Ahxh-Ac[C14] (not fully specified)
T24 chain: PLGXLA

[16] = biological target: T25, Ac-P-Cit-G˜Hphe-Cha-A-Ahxh-Ac[C14] (not fully specified)
T25 chain: PXGXXA

[17] = biological target: T26, Ac-PLG˜Hphe-Cit-L-Ahxh-Hynic (not fully specified)
T26 chain: PLGXXL

[18] = biological target: T27, Ac-P-Cit-G˜Tle-LA-Ahxh-Hynic (not fully specified)
T27 chain: PXGXLA

Ac-PRQ˜IT-Ahxh-Hynic = biological target: T28, Ac-PRQ˜IT-Ahxh-Hynic
T28 chain: PRQIT

[19] = biological target: T29, Ac-DAla-PRG˜Ile-LA-Ahxh-Hynic (not fully specified)
T29 chain: APRGILA

Ac-PLG˜LL-Ahxh-Ac[C14] = biological target: T30, Ac-PLG˜LL-Ahxh-Ac[C14] (not fully specified)
T30 chain: PLGLL

[20] = biological target: T31, Ac-P-NLys-R˜LTA-Ahxh-Hynic (not fully specified)
T31 chain: PXRLTA

[21] = biological target: T32, Ac-NLys-PLG˜Hphe-RLA-Ahxh-Hynic (not fully specified)
T32 chain: XPLGXRLA

[22] = biological target: T33, Ac-P-Cit-Cit-LTA-Ahxh-Hynic
T33 chain: PXXLTA

[23] = biological target: T34, NLys-NLys-PLG˜Hphe-YL-Ahxh-Hynic
T34 chain: XXPLGXYL

[24] = biological target: T35, Ac-Hpro-Cit-G˜Hphe-TA-Ahxh-Hynic (not fully specified)
T35 chain: XXGXTA

[25] = biological target: T36, H-γ-DGlu-PLG-LYT-Ahxh-Hynic (not fully specified)
T36 chain: EPLGLYT

[26] = biological target: T37, Ac-PLG˜S(OBn)-LL-Ahxh-Hynic
T37 chain: PLGSLL

Ac-PLG˜LHL-Ahxh-Hynic = biological target: T38, Ac-PLG˜LHL-Ahxh-Hynic
T38 chain: PLGLHL

[27] = biological target: T39, Ac-P-Cha-G˜LL-Ahxh-Ac[C14] (not fully specified)
T39 chain: PXGLL

Ac-VRW˜LLA-Ahxh-Hynic = biological target: T40, Ac-VRW˜LLA-Ahxh-Hynic
T40 chain: VRWLLA

[28] = biological target: T41, Ac-PL-NLys˜Hphe-L-Ahxh-Ac[C14] (not fully specified)
T41 chain: PLXXL

[29] = biological target: T42, Ac-PL-NLys˜Hphe-RL-Ahxh-Ac[C14] (not fully specified)
T42 chain: PLXXRL

Ac-PLG˜LL-Ahxh-Hynic = biological target: T43, Ac-PLG˜LL-Ahxh-Hynic
T43 chain: PLGLL

[30] = biological target: T44, Ac-P-Cit-G˜Hphe-L-Ahxh-Hynic (not fully specified)
T44 chain: PXGXL

[31] = biological target: T45, Ac-PLG˜Hphe-YL-Ambh-Hynic
T45 chain: PLGXYL

Ac-PLG˜LOL-Ahxh-Hynic = biological target: T46, Ac-PLG˜LOL-Ahxh-Hynic (not fully specified)
T46 chain: PLGLXL

Ac-PLG˜LLA-Ahxh-Hynic = biological target: T47, Ac-PLG˜LLA-Ahxh-Hynic (not fully specified)
T47 chain: PLGLLA

[32] = biological target: T48, Ac-P-Cha-G˜Hphe-Cit-L-Ahxh-Ac[C14] (not fully specified)
T48 chain: PXGXXL

[33] = biological target: T49, Hynic-ff-Ahx-PLG˜Hphe-OLEE-OH
T49 chain: FFXPLGXXLEE

[34] = biological target: T50, Ac-P-O(Me)2-G˜Hphe-L-Nle-Ahxh-Hynic (not fully specified)
T50 chain: PXGXLX

Ac-PHG˜Hphe-L-Ahxh-Hynic = biological target: T51, Ac-PHG˜Hphe-L-Ahxh-Hynic (not fully specified)
T51 chain: PHGXL

B1: MMP-2 (protein)
chain: APSPIIKFPGDVAPKTDKELAVQYLNTFYGCPKESCNLFVLKDTLKKMQKFFGLPQTGDLDQNTIETMRKPRCGNPDVANYNFFPRKPKWDKNQITYRIIGYTPDLDPETVDDAFARAFQVWSDVTPLRFSRIHDGEADIMINFGRWEHGDGYPFDGKDGLLAHAFAPGTGVGGDSHFDDDELWTLGEGQVVRVKYGNADGEYCKFPFLFNGKEYNSCTDTGRSDGFLWCSTTYNFEKDGKYGFCPHEALFTMGGNAEGQPCKFPFRFQGTSYDSCTTEGRTDGYRWCGTTEDYDRDKKYGFCPETAMSTVGGNSEGAPCVFPFTFLGNKYESCTSAGRSDGKMWCATTANYDDDRKWGFCPDQGYSLFLVAAHEFGHAMGLEHSQDPGALMAPIYTYTKNFRLSQDDIKGIQELYGASPDIDLGTGPTPTLGPVTPEICKQDIVFDGIAQIRGEIFFFKDRFIWRTVTPRDKPMGPLLVATFWPELPEKIDAVYEAPQEEKAVFFAGNEYWIYSASTLERGYPKPLTSLGLPPDVQRVDAAFNWSKNKKTYIFAGDKFWRYNEVKKKMDPGFPKLIADAWNAIPDNLDAVVDLQGGGHSYFFKGAYYLKLENQSLKSVKFGSIKSDWLGC
Q: How did the Kcat/Km (Ac-POG˜LLA-Ahxh-Hynic) turn out when B1 was run?
A: > 500000 M⁻¹ s⁻¹

Q: And the Kcat/Km [1]?
A: 4580 M⁻¹ s⁻¹

Q: And the Kcat/Km (Ac-PLG˜LY-Ahxh-Ac[C14])?
A: 283000 M⁻¹ s⁻¹

Q: What about the Kcat/Km [2] of the same protein?
A: > 500000 M⁻¹ s⁻¹

Q: What about the Kcat/Km (Ac-PL-DAla˜LL-Ahxh-Hynic) of the same protein?
A: 0 M⁻¹ s⁻¹

Q: And the Kcat/Km [3]?
A: 8020 M⁻¹ s⁻¹

Q: What about the Kcat/Km (Piv-PLG˜LYT-Ahxh-Hynic) of the same protein?
A: 569000 M⁻¹ s⁻¹

Q: And the Kcat/Km [4]?
A: 93000 M⁻¹ s⁻¹

Q: What about the Kcat/Km [5] of the same protein?
A: 174000 M⁻¹ s⁻¹

Q: And the Kcat/Km (Ac-PLG˜L-Cha-Ahxh-Hynic)?
A: 120000 M⁻¹ s⁻¹

Q: What about the Kcat/Km [6] of the same protein?
A: 0 M⁻¹ s⁻¹

Q: And the Kcat/Km (Ac-P-Cit-G-Hphe-LA-Hynic)?
A: > 250000 M⁻¹ s⁻¹

Q: What about the Kcat/Km (Ac-PLG˜LWA-Ahxh-Ac[C14]) of the same protein?
A: 712000 M⁻¹ s⁻¹

Q: And the Kcat/Km (Ac-PRQ˜ITA-Ahxh-Hynic)?
A: 2400 M⁻¹ s⁻¹

Q: And the Kcat/Km [7]?
A: 53800 M⁻¹ s⁻¹

Q: And the Kcat/Km [8]?
A: 42500 M⁻¹ s⁻¹

Q: What about the Kcat/Km (Ac-PLG˜LL-Ambh-Hynic) of the same protein?
A: 33600 M⁻¹ s⁻¹

Q: And the Kcat/Km [9]?
A: > 750000 M⁻¹ s⁻¹

Q: And the Kcat/Km [10]?
A: > 500000 M⁻¹ s⁻¹

Q: And the Kcat/Km [11]?
A: 197 M⁻¹ s⁻¹

Q: And the Kcat/Km [12]?
A: > 250000 M⁻¹ s⁻¹

Q: What about the Kcat/Km [13] of the same protein?
A: 473000 M⁻¹ s⁻¹

Q: What about the Kcat/Km [14] of the same protein?
A: 189 M⁻¹ s⁻¹

Q: What about the Kcat/Km [15] of the same protein?
A: 16300 M⁻¹ s⁻¹

Q: What about the Kcat/Km [16] of the same protein?
A: > 500000 M⁻¹ s⁻¹

Q: And the Kcat/Km [17]?
A: 157000 M⁻¹ s⁻¹

Q: And the Kcat/Km [18]?
A: 164 M⁻¹ s⁻¹

Q: What about the Kcat/Km (Ac-PRQ˜IT-Ahxh-Hynic) of the same protein?
A: 898 M⁻¹ s⁻¹

Q: And the Kcat/Km [19]?
A: 130000 M⁻¹ s⁻¹

Q: What about the Kcat/Km (Ac-PLG˜LL-Ahxh-Ac[C14]) of the same protein?
A: 148000 M⁻¹ s⁻¹

Q: What about the Kcat/Km [20] of the same protein?
A: 0 M⁻¹ s⁻¹

Q: And the Kcat/Km [21]?
A: 461000 M⁻¹ s⁻¹

Q: And the Kcat/Km [22]?
A: 27300 M⁻¹ s⁻¹

Q: What about the Kcat/Km [23] of the same protein?
A: 26300 M⁻¹ s⁻¹

Q: What about the Kcat/Km [24] of the same protein?
A: 99600 M⁻¹ s⁻¹

Q: And the Kcat/Km [25]?
A: 153000 M⁻¹ s⁻¹

Q: And the Kcat/Km [26]?
A: 180000 M⁻¹ s⁻¹

Q: What about the Kcat/Km (Ac-PLG˜LHL-Ahxh-Hynic) of the same protein?
A: 73700 M⁻¹ s⁻¹

Q: What about the Kcat/Km [27] of the same protein?
A: 24700 M⁻¹ s⁻¹

Q: And the Kcat/Km (Ac-VRW˜LLA-Ahxh-Hynic)?
A: 43000 M⁻¹ s⁻¹

Q: What about the Kcat/Km [28] of the same protein?
A: 465000 M⁻¹ s⁻¹

Q: What about the Kcat/Km [29] of the same protein?
A: 102000 M⁻¹ s⁻¹

Q: And the Kcat/Km (Ac-PLG˜LL-Ahxh-Hynic)?
A: > 250000 M⁻¹ s⁻¹

Q: What about the Kcat/Km [30] of the same protein?
A: 161000 M⁻¹ s⁻¹

Q: And the Kcat/Km [31]?
A: 63200 M⁻¹ s⁻¹

Q: And the Kcat/Km (Ac-PLG˜LOL-Ahxh-Hynic)?
A: 91400 M⁻¹ s⁻¹

Q: What about the Kcat/Km (Ac-PLG˜LLA-Ahxh-Hynic) of the same protein?
A: 387000 M⁻¹ s⁻¹

Q: What about the Kcat/Km [32] of the same protein?
A: 22600 M⁻¹ s⁻¹

Q: What about the Kcat/Km [33] of the same protein?
A: 81600 M⁻¹ s⁻¹

Q: And the Kcat/Km [34]?
A: 567000 M⁻¹ s⁻¹

Q: And the Kcat/Km (Ac-PHG˜Hphe-L-Ahxh-Hynic)?
A: 22100 M⁻¹ s⁻¹
